We go through 9 molecules from patent publication US20160091500.

The data set concerns T1, intact chondroadherin (CHAD) polypeptide, human.
T1 sequence: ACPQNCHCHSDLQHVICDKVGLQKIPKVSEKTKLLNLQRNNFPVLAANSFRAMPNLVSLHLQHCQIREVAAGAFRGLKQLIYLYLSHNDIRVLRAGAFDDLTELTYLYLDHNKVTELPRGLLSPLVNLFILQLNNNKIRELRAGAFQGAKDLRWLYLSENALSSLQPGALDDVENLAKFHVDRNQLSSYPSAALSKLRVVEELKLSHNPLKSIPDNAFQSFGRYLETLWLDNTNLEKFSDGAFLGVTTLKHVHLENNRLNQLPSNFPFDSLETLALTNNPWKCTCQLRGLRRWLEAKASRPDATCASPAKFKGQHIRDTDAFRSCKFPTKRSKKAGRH

With MMP-3, the “CHAD fragmentation after protease digestion of normal disc tissue (SDS-PAGE, immunoblot)” value (shortened to “CHAD fragmentation”) was “Digestion with MMPs 3, 7, 12 and 13, showed no evidence of CHAD fragments retained in the tissue”.

As to ADAMTS5, the “CHAD fragmentation” value was “digestions performed with ADAMTS4 and ADAMTS5 also did not generate CHAD fragments”.

With Recombinant cathepsin B, the “CHAD fragmentation” value is “Digestions performed with cathepsins B and L showed extensive degradation of CHAD”.

Turning to MMP-12, the “CHAD fragmentation” value is “Digestion with MMPs 3, 7, 12 and 13, showed no evidence of CHAD fragments retained in the tissue”.

Recombinant cathepsin L: the “CHAD fragmentation” value is “Digestions performed with cathepsins B and L showed extensive degradation of CHAD”.

As to MMP-13, the “CHAD fragmentation” value was “Digestion with MMPs 3, 7, 12 and 13, showed no evidence of CHAD fragments retained in the tissue”.

B1: ADAMTS4 (enzyme, UniProt O75173 213-837, looked up, species assumed)
A disintegrin and metalloproteinase with thrombospondin motifs 4: FASLSRFVETLVVADDKMAAFHGAGLKRYLLTVMAAAAKAFKHPSIRNPVSLVVTRLVILGSGEEGPQVGPSAAQTLRSFCAWQRGLNTPEDSDPDHFDTAILFTRQDLCGVSTCDTLGMADVGTVCDPARSCAIVEDDGLQSAFTAAHELGHVFNMLHDNSKPCISLNGPLSTSRHVMAPVMAHVDPEEPWSPCSARFITDFLDNGYGHCLLDKPEAPLHLPVTFPGKDYDADRQCQLTFGPDSRHCPQLPPPCAALWCSGHLNGHAMCQTKHSPWADGTPCGPAQACMGGRCLHMDQLQDFNIPQAGGWGPWGPWGDCSRTCGGGVQFSSRDCTRPVPRNGGKYCEGRRTRFRSCNTEDCPTGSALTFREEQCAAYNHRTDLFKSFPGPMDWVPRYTGVAPQDQCKLTCQAQALGYYYVLEPRVVDGTPCSPDSSSVCVQGRCIHAGCDRIIGSKKKFDKCMVCGGDGSGCSKQSGSFRKFRYGYNNVVTIPAGATHILVRQQGNPGHRSIYLALKLPDGSYALNGEYTLMPSPTDVVLPGAVSLRYSGATAASETLSGHGPLAQPLTLQVLVAGNPQDTRLRYSFFVPRPTPSTPRPTPQDWLHRRAQILEILRRRPWAGRK
B1: the “CHAD fragmentation” value was “digestions performed with ADAMTS4 and ADAMTS5 also did not generate CHAD fragments”.

B2: MMP-7 (enzyme, UniProt P09237 95-267, looked up, species assumed)
Matrilysin: YSLFPNSPKWTSKVVTYRIVSYTRDLPHITVDRLVSKALNMWGKEIPLHFRKVVWGTADIMIGFARGAHGDSYPFDGPGNTLAHAFAPGTGLGGDAHFDEDERWTDGSSLGINFLYAATHELGHSLGMGHSSDPNAVMYPTYGNGDPQNFKLSQDDIKGIQKLYGKRSNSRKK
For the molecule B2, the “CHAD fragmentation” value was “Digestion with MMPs 3, 7, 12 and 13, showed no evidence of CHAD fragments retained in the tissue”.

B3: Recombinant cathepsin K (enzyme, UniProt P43235 115-329, looked up, species assumed)
Cathepsin K: APDSVDYRKKGYVTPVKNQGQCGSCWAFSSVGALEGQLKKKTGKLLNLSPQNLVDCVSENDGCGGGYMTNAFQYVQKNRGIDSEDAYPYVGQEESCMYNPTGKAAKCRGYREIPEGNEKALKRAVARVGPVSVAIDASLTSFQFYSKGVYYDESCNSDNLNHAVLAVGYGIQKGNKHWIIKNSWGENWGNKGYILMARNKNNACGIANLASFPKM
Turning to B3, the “CHAD fragmentation” value was “cathepsin K generated a CHAD fragment large enough to be retained in the gel and similar in size to that generated in situ”.
